This is an account of results in IntAct's records for PubMed 20865002.

B1: Serine/threonine-protein kinase RAD53 (Saccharomyces cerevisiae), P22216 (parent)
chain: MENITQPTQQSTQATQRFLIEKFSQEQIGENIVCRVICTTGQIPIRDLSADISQVLKEKRSIKKVWTFGRNPACDYHLGNISRLSNKHFQILLGEDGNLLLNDISTNGTWLNGQKVEKNSNQLLSQGDEITVGVGVESDILSLVIFINDKFKQCLEQNKVDRIRSNLKNTSKIASPGLTSSTASSMVANKTGIFKDFSIIDEVVGQGAFATVKKAIERTTGKTFAVKIISKRKVIGNMDGVTRELEVLQKLNHPRIVRLKGFYEDTESYYMVMEFVSGGDLMDFVAAHGAVGEDAGREISRQILTAIKYIHSMGISHRDLKPDNILIEQDDPVLVKITDFGLAKVQGNGSFMKTFCGTLAYVAPEVIRGKDTSVSPDEYEERNEYSSLVDMWSMGCLVYVILTGHLPFSGSTQDQLYKQIGRGSYHEGPLKDFRISEEARDFIDSLLQVDPNNRSTAAKALNHPWIKMSPLGSQSYGDFSQISLSQSLSQQKLLENMDDAQYEFVKAQRKLQMEQQLQEQDQEDQDGKIQGFKIPAHAPIRYTQPKSIEAETREQKLLHSNNTENVKSSKKKGNGRFLTLKPLPDSIIQESLEIQQGVNPFFIGRSEDCNCKIEDNRLSRVHCFIFKKRHAVGKSMYESPAQGLDDIWYCHTGTNVSYLNNNRMIQGTKFLLQDGDEIKIIWDKNNKFVIGFKVEINDTTGLFNEGLGMLQEQRVVLKQTAEEKDLVKKLTQMMAAQRANQPSASSSSMSAKKPPVSDTNNNGNNSVLNDLVESPINANTGNILKRIHSVSLSQSQIDPSKKVKRAKLDQTSKGPENLQFS
partner: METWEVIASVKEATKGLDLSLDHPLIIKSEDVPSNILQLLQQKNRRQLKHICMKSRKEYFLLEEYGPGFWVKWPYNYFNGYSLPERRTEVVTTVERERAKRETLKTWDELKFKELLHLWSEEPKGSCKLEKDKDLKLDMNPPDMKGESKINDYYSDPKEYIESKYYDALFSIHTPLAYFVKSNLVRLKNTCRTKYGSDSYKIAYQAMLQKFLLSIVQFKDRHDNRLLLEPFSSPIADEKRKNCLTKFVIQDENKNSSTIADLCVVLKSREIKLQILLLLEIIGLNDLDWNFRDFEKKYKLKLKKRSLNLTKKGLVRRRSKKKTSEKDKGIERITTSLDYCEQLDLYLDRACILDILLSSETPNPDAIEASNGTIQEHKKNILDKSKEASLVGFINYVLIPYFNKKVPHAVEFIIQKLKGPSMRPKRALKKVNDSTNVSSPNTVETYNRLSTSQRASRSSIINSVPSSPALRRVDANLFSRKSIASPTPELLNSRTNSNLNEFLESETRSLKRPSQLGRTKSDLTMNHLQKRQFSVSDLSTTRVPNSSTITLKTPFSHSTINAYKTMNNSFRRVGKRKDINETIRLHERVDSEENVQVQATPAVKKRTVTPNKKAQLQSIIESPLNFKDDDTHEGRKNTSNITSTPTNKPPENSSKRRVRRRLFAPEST

The experiment covers variants of B1. Particulars: with sld3_yeast SLD3, P53135.
For K227A, the “effect of a mutation on the interaction” value is on record as “disrupting interaction”.
